Data taken from patent US20100234294A1 (INSTITUT NATIONAL DE LA SANTE ET DE LA RECHERCHE MEDICALE …, published 2010).

What was measured:
Test in all cases: co-expression in COS cells
ζ = target: T1, ζ (UniProt P20963 22-164)
T1 construct: also called CD3ζ

DAP10 = target: T2, DAP10 (UniProt Q9UBK5 19-93)
T2 sequence (looked up): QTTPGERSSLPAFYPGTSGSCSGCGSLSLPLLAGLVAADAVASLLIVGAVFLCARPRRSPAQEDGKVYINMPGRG

FcERIγ = target: T3, FcERIγ (UniProt P30273 19-86)
T3 sequence (looked up): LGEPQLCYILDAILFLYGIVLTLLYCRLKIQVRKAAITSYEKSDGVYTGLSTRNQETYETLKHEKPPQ

DAP12 = DAP12 (UniProt O43914 22-113)
Sequence of DAP12 (O43914 22-113 limits assumed): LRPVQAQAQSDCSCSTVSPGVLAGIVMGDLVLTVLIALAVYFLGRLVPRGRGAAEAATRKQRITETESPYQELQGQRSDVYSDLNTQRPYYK

T1 sequence (P20963 22-164 limits assumed): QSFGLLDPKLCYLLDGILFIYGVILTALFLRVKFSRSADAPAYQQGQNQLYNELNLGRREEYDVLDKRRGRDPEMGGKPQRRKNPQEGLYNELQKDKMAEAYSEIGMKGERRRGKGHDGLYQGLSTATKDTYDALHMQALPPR

binding result (ζ): no binding
binding result (DAP10): no binding
binding result (FcERIγ): no binding
binding result (DAP12): no binding
B1: CD160-TM, Flag-tagged, expressed by transfected cells (receptor)
chain: GCINITSSASQEGTRLNLICTVWHKKEEAEGFVVFLCKDRSGDCSPETSLKQLRLKRDPGIDGVGEISSQLMFTISQVTPLHSGTYQCCARSQKSGIRLQGHFFSILFTETGNYTVTGLKQRQHLEFSHNEGTLSSGFLQEKVWVMLVTSLVALQGMSKRAVSTPSNEGAIIFLPPWLFSRRRRLERMSRGREKCYSSPGYPQESSNQFH
notes: Expressed in Jurkat cells from pEF6; Also used here for the co-expression in COS cells, where the construct is not described; also called CD160-TM transfectants; CD160-TM-transfected cells; not shown: Flag tag coded by the reverse oligonucleotide (C-terminal)
